# In US20220332846A1 (Innovent, published 2022):
# B1: ADI-10087 (antibody, V domains shown)
# VH: QLQLQESGPGLVKPSETLSLTCTVSGGSISSASYYWSWIRQPPGKGLEWIGSINYRGSTYYNPSLKSRVTISVDTSKNQFSLKLSSVTAADTAVYYCARENSGVVPAAGPNWFGPWGQGTLVTVSS
# VL: EIVLTQSPATLSLSPGERATLSCRASQSVSSYLAWYQQKPGQAPRLLIYDASNRATGIPARFSGSGSGTDFTLTISSLEPEDFAVYYCQQRRNWFTFGGGTKVEIKR
# modifications: In Example 10 the antibody carries a ruthenium label, and in Example 9 biotin and ruthenium labels. The labelling sites are not stated and the letters do not carry them.
# notes: The antibody was obtained from PCT/CN2017/118050; also called anti-PCSK9 antibody; test drug
# Target: T1, PCSK-9 in human serum samples (human, UniProt Q8NBP7 31-692, limits assumed)
# T1 construct: Endogenous PCSK-9 in clinical serum of human subjects, detected with a goat anti-human PCSK-9 polyclonal antibody; also called proprotein convertase subtilisin/kexin type 9; serum free PCSK-9
# Experiment: ELISA, ADI-10087 coated on a microplate, serum PCSK-9 captured, detected with goat anti-human PCSK-9 polyclonal antibody
# Method: A corresponding TMB substrate of HRP enzyme was then added, the color intensity of the TMB substrate was proportional to the content of PCSK-9, and the concentration of PCSK-9 in clinical serum could be detected by OD values at 450 nm or 620 nm using a microplate reader.
# T1 sequence (Q8NBP7 31-692 limits assumed): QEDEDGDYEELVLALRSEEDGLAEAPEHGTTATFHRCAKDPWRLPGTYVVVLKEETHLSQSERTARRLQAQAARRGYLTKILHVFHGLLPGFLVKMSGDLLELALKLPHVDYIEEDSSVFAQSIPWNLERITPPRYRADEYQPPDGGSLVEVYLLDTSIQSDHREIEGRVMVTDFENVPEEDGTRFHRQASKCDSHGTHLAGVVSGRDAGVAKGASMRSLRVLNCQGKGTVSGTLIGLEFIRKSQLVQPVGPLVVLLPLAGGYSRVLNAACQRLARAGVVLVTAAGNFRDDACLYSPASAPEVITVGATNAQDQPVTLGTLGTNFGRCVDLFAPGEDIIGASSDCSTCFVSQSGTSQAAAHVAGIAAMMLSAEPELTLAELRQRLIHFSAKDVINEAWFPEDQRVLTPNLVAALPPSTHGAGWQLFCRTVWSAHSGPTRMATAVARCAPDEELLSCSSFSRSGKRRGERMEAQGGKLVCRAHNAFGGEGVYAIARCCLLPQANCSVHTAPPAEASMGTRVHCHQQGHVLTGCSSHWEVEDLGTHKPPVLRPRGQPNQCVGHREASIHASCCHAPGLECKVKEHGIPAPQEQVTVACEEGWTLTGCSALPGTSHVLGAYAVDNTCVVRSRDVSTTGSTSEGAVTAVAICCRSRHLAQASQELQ
binder,measurement,value
B1,binding result,binds
